Measured values as given in PMC5431922.

Legend:
[1] = target: 20.8-kDa tegumental-allergen-like protein from Clonorchis sinensis (CsTAL3), full-length (aa 1-184) (Clonorchis sinensis); assay: AUC; sedimentation velocity, 20 °C, 2.5 and 0.6 mg/mL, 50 x 10^3 rpm, interference optics, c(s) analysis; without CaCl2 and with 5 mM CaCl2
[2] = target: 20.8-kDa tegumental-allergen-like protein from Clonorchis sinensis (CsTAL3), full-length (aa 1-184) (Clonorchis sinensis); assay: SAXS; 20 °C, 20 mM Tris-HCl pH 7.5, 100 mM NaCl, without or with 5 mM CaCl2; 1.9 to 5.2 mg/mL; molecular mass estimated against standard proteins

For “20.8-kDa tegumental-allergen-like protein from Clonorchis sinensis (CsTAL3), full-length (aa 1-184) (natural protein)”, the stoichiometry N [1] was 2 and the stoichiometry N [2] was 2.
